Measurements reported in article PMC9726891, “SESAME-catalyzed H3T11 phosphorylation inhibits Dot1-catalyzed H3K79me3 to regulate autophagy and telomere silencing” (Nature Communications, 2022).
Each block holds one molecule with its values, some of them ahead of it. Where no end group is shown, it is not given here.

Assays:
Set2 = Set2 (UniProt P46995); experiment: biotinylated peptide pull-down, immunoblot; settings: reference: unmodified H3 (1-23) peptide; sites T11
Set1 = Set1 (UniProt P38827); experiment: biotinylated peptide pull-down, immunoblot; settings: reference: unmodified H3 (1-23) peptide; sites T11
Dot1 [1] = target: Dot1 (UniProt Q04089); experiment: biotinylated peptide pull-down, immunoblot; settings: reference: unmodified H3 (1-23) peptide; sites T11
Dot1 [2] = target: Dot1 (UniProt Q04089); experiment: Dot1-FLAG IP, anti-H3/H4 blot of nucleosomes; settings: reference: wild type H3; sites T11
Dot1 [3] = target: Dot1 (UniProt Q04089); experiment: H3-FLAG nucleosome IP, Dot1 blot; settings: reference: WT H3-FLAG; sites T11
[4] = target: T1, purified endogenous SIR complex (Sir2-FLAG) (S. cerevisiae (endogenous in yeast), UniProt P06700 1-562; P06701 1-978; P11978 1-1358); experiment: pull-down; 1.0 µg biotinylated histone peptide incubated with 1 µg purified SIR complex (Sir2-FLAG) in 50 mM Tris-HCl pH 7.5, 250 mM NaCl, 0.1% NP-40, overnight at 4 °C; Streptavidin beads; immunoblot; settings: both partners purified
T1 construct: NAD-dependent histone deacetylase Sir2, S. cerevisiae; Sir3, S. cerevisiae; named as a subunit of the SIR complex in the introduction; Sir4, S. cerevisiae; also called silent information regulator complex; not shown: FLAG, C-terminal, kept; copies: + +
T1 sequence (P06700 whole entry, chain 1 of 3): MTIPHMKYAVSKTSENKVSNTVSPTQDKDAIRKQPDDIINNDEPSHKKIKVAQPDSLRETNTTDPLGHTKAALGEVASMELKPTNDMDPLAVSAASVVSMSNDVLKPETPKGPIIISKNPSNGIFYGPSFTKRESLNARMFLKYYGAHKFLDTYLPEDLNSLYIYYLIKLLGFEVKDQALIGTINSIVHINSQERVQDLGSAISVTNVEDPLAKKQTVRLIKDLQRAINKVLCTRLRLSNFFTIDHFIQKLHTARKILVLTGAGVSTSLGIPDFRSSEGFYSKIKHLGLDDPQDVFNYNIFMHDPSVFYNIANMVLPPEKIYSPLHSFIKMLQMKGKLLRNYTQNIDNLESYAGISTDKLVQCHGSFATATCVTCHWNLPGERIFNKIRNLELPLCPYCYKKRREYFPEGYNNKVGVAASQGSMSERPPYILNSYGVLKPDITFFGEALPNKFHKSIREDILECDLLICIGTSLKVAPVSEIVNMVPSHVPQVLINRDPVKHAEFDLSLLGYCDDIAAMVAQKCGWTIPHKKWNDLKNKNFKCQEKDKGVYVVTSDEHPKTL
T1 sequence (P06701 whole entry, chain 2 of 3): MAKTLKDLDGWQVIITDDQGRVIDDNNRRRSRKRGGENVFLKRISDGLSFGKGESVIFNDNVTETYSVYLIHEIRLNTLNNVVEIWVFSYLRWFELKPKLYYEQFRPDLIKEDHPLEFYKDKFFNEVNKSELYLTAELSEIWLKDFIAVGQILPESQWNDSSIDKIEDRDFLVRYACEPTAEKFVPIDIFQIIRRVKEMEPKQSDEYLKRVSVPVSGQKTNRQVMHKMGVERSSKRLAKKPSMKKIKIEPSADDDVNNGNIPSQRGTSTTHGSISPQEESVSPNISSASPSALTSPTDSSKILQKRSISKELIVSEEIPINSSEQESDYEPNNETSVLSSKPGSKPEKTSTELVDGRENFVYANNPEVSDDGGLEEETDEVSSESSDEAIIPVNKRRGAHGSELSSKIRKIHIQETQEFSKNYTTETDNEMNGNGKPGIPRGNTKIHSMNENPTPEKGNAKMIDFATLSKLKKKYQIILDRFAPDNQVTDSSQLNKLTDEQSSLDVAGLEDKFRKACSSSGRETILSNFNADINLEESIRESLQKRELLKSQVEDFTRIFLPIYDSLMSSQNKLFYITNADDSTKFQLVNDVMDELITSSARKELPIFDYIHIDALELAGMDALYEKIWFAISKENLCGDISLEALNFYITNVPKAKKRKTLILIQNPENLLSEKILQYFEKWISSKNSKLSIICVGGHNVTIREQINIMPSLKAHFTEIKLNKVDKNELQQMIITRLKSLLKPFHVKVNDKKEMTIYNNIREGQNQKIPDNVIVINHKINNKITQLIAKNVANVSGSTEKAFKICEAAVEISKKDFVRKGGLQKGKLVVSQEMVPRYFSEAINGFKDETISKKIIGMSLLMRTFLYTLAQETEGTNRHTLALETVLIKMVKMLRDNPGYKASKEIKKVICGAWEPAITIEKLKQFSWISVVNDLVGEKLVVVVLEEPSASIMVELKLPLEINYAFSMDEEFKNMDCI
T1 sequence (P11978 whole entry, chain 3 of 3): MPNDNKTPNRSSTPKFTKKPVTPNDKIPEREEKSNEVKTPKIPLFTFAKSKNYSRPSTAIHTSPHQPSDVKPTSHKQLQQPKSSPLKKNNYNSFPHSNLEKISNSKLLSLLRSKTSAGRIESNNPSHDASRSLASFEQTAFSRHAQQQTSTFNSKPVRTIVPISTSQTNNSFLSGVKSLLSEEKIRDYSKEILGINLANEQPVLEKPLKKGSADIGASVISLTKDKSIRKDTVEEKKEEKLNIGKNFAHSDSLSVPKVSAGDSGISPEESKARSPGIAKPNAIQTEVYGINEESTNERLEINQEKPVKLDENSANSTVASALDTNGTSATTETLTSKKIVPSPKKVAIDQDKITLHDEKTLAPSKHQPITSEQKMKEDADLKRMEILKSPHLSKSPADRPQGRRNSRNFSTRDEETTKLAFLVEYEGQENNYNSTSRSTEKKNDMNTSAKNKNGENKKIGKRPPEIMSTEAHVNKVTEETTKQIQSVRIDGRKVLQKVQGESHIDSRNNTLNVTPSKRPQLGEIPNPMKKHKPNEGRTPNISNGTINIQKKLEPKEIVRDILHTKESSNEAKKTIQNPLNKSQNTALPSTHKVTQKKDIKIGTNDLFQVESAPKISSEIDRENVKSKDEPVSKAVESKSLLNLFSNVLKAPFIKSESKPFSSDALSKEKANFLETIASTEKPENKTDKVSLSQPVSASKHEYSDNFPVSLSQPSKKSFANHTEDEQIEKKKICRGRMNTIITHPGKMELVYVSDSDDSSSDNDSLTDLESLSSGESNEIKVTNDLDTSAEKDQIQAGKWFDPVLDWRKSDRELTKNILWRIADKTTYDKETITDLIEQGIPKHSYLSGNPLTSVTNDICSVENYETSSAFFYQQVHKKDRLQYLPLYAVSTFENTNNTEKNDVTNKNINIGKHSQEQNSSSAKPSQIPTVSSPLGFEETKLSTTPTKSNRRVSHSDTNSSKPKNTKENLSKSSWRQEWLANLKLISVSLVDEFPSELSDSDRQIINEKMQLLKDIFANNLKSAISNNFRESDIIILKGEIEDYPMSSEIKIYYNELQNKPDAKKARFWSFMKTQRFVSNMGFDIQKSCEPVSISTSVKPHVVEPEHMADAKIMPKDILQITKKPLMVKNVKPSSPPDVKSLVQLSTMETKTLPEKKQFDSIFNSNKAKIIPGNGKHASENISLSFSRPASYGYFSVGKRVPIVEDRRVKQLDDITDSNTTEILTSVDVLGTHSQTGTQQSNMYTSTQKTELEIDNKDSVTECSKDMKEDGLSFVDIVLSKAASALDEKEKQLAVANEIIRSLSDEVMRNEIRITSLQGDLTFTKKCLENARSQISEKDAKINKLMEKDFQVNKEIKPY

binding against the reference (Set2): same
binding against the reference (Set1): same
binding against the reference (Dot1 [1]): weaker
Molecule: histone H3 1-23 (from UniProt P61830) H3pT11 (1-23) peptide

binding against the reference (Dot1 [2]): stronger
Molecule: histone H3 (from UniProt P61830) H3T11A

binding against the reference (Dot1 [3]): stronger
Molecule: histone H3 (from UniProt P61830) H3T11A-FLAG

binding result [4]: binds
B1: Unmodified H3 (72–85) peptide (peptide)
peptide: REIAQDFKTDLRFQ
modifications: also: biotin (position not given here)
notes: histone H3 residues 72-85; also called unmodified H3 peptide; source: synthetic peptide (biotinylated histone peptide)
